The Human Domainome abundance scans (Beltran et al. 2025)
± gives the uncertainty stated by the source.

B1: Intersectin-1, residues 909 to 971; numbered along this chain, Q15811 (parent)
chain: QGEKVEGLQAQALYPWRAKKDNHLNFNKNDVITVLEQQDMWWFGEVQGQKGWFPKSYVKLISG

Variants of: B1
Test: abundance fitness (aPCA) (normalised: wild type 0, dead -1); higher = more abundant; growth selection in yeast, the domain comes from the species named
Details: Homo sapiens

Variant	abundance fitness
QGEKVEGLQAQALYPWRAKKDNHLNFNKNDVITVLEQQDMWWFGEVQGQKGWFQKSYVKLISG	-0.688 ± 0.3
QGEKVEGLQAQALYPWRAKKDNHLNFNKNDVITVLEQQDMWWFGEVQGQKGWFVKSYVKLISG	-0.499 ± 0.12
QGEKVEGLQAQALYPWRAKKDNHLNFNKNDVITVLEQQDMWWFGEVQGQKGWFDKSYVKLISG	-0.721 ± 0.27
QGEKVEGLQAQALYPWRAKKDNHLNFNKNDVITVLEQQDMWWFGEVQGQKGWFRKSYVKLISG	-0.714 ± 0.12
QGEKVEGLQAQALYPWRAKKDNHLNFNKNDVITVLEQQDMWWFGEVQGQKGWFGKSYVKLISG	-1.18 ± 0.41
QGEKVEGLQAQALYPWRAKKDNHLNFNKNDVITVLEQQDMWWFGEVQGQKGWFKKSYVKLISG	-0.354 ± 0.22
QGEKVEGLQAQALYPWRAKKDNHLNFNKNDVITVLEQQDMWWFGEVQGQKGWFLKSYVKLISG	-0.215 ± 0.11
QGEKVEGLQAQALYPWRAKKDNHLNFNKNDVITVLEQQDMWWFGEVQGQKGWFCKSYVKLISG	-0.765 ± 0.34
QGEKVEGLQAQALYPWRAKKDNHLNFNKNDVITVLEQQDMWWFGEVQGQKGWFPKQYVKLISG	-0.099 ± 0.2
QGEKVEGLQAQALYPWRAKKDNHLNFNKNDVITVLEQQDMWWFGEVQGQKGWFPKDYVKLISG	-0.1 ± 0.18
QGEKVEGLQAQALYPWRAKKDNHLNFNKNDVITVLEQQDMWWFGEVQGQKGWFPKYYVKLISG	-0.225 ± 0.28
QGEKVEGLQAQALYPWRAKKDNHLNFNKNDVITVLEQQDMWWFGEVQGQKGWFPKKYVKLISG	-0.251 ± 0.2
QGEKVEGLQAQALYPWRAKKDNHLNFNKNDVITVLEQQDMWWFGEVQGQKGWFPKCYVKLISG	-0.204 ± 0.28
QGEKVEGLQAQALYPWRAKKDNHLNFNKNDVITVLEQQDMWWFGEVQGQKGWFPKTYVKLISG	-0.016 ± 0.16
QGEKVEGLQAQALYPWRAKKDNHLNFNKNDVITVLEQQDMWWFGEVQGQKGWFPKLYVKLISG	-0.102 ± 0.092
QGEKVEGLQAQALYPWRAKKDNHLNFNKNDVITVLEQQDMWWFGEVQGQKGWFPKAYVKLISG	-0.137 ± 0.13
QGEKVEGLQAQALYPWRAKKDNHLNFNKNDVITVLEQQDMWWFGEVQGQKGWFPKEYVKLISG	-0.178 ± 0.18
QGEKVEGLQAQALYPWRAKKDNHLNFNKNDVITVLEQQDMWWFGEVQGQKGWFPKWYVKLISG	-0.393 ± 0.17
QGEKVEGLQAQALYPWRAKKDNHLNFNKNDVITVLEQQDMWWFGEVQGQKGWFPKPYVKLISG	-0.298 ± 0.22
QGEKVEGLQAQALYPWRAKKDNHLNFNKNDVITVLEQQDMWWFGEVQGQKGWFPKMYVKLISG	-0.238 ± 0.12
QGEKVEGLQAQALYPWRAKKDNHLNFNKNDVITVLEQQDMWWFGEVQGQKGWFPKFYVKLISG	-0.239 ± 0.19
QGEKVEGLQAQALYPWRAKKDNHLNFNKNDVITVLEQQDMWWFGEVQGQKGWFPKVYVKLISG	-0.099 ± 0.081

Variant	abundance fitness
QGEKVEGLQAQALYPWRAKKDNHLNFNKNDVITVLEQQDMWWFGEVQGQKGWFPKIYVKLISG	-0.491 ± 0.26
QGEKVEGLQAQALYPWRAKKDNHLNFNKNDVITVLEQQDMWWFGEVQGQKGWFPKGYVKLISG	-0.147 ± 0.068
QGEKVEGLQAQALYPWRAKKDNHLNFNKNDVITVLEQQDMWWFGEVQGQKGWFPKSVVKLISG	-0.084 ± 0.11
QGEKVEGLQAQALYPWRAKKDNHLNFNKNDVITVLEQQDMWWFGEVQGQKGWFPKSWVKLISG	-0.258 ± 0.36
QGEKVEGLQAQALYPWRAKKDNHLNFNKNDVITVLEQQDMWWFGEVQGQKGWFPKSQVKLISG	-0.14 ± 0.12
QGEKVEGLQAQALYPWRAKKDNHLNFNKNDVITVLEQQDMWWFGEVQGQKGWFPKSEVKLISG	-0.243 ± 0.22
QGEKVEGLQAQALYPWRAKKDNHLNFNKNDVITVLEQQDMWWFGEVQGQKGWFPKSFVKLISG	0.279 ± 0.34
QGEKVEGLQAQALYPWRAKKDNHLNFNKNDVITVLEQQDMWWFGEVQGQKGWFPKSNVKLISG	0.212 ± 0.41
QGEKVEGLQAQALYPWRAKKDNHLNFNKNDVITVLEQQDMWWFGEVQGQKGWFPKSCVKLISG	-0.153 ± 0.14
QGEKVEGLQAQALYPWRAKKDNHLNFNKNDVITVLEQQDMWWFGEVQGQKGWFPKSAVKLISG	0.12 ± 0.11
QGEKVEGLQAQALYPWRAKKDNHLNFNKNDVITVLEQQDMWWFGEVQGQKGWFPKSHVKLISG	-0.238 ± 0.18
QGEKVEGLQAQALYPWRAKKDNHLNFNKNDVITVLEQQDMWWFGEVQGQKGWFPKSRVKLISG	-0.013 ± 0.08
QGEKVEGLQAQALYPWRAKKDNHLNFNKNDVITVLEQQDMWWFGEVQGQKGWFPKSKVKLISG	0.081 ± 0.23
QGEKVEGLQAQALYPWRAKKDNHLNFNKNDVITVLEQQDMWWFGEVQGQKGWFPKSPVKLISG	-1.02 ± 0.4
QGEKVEGLQAQALYPWRAKKDNHLNFNKNDVITVLEQQDMWWFGEVQGQKGWFPKSDVKLISG	-0.399 ± 0.24
QGEKVEGLQAQALYPWRAKKDNHLNFNKNDVITVLEQQDMWWFGEVQGQKGWFPKSLVKLISG	0.013 ± 0.13
QGEKVEGLQAQALYPWRAKKDNHLNFNKNDVITVLEQQDMWWFGEVQGQKGWFPKSMVKLISG	0.008 ± 0.13
QGEKVEGLQAQALYPWRAKKDNHLNFNKNDVITVLEQQDMWWFGEVQGQKGWFPKSSVKLISG	-0.308 ± 0.14
QGEKVEGLQAQALYPWRAKKDNHLNFNKNDVITVLEQQDMWWFGEVQGQKGWFPKSTVKLISG	-0.013 ± 0.16
QGEKVEGLQAQALYPWRAKKDNHLNFNKNDVITVLEQQDMWWFGEVQGQKGWFPKSGVKLISG	-0.572 ± 0.13
QGEKVEGLQAQALYPWRAKKDNHLNFNKNDVITVLEQQDMWWFGEVQGQKGWFPKSIVKLISG	-0.289 ± 0.28
